Drawing on article PMC13585564, this text covers Kd, other: ΔH and fold impairment of binding against CTNIP4(46–70) (Cys–Cys) for ten substances.

For assay [1], the target named is HSL3 ectodomain (wild type, residues 23–627). Put plainly: ITC. The note with it: ligand in syringe, receptor in cell; N = 1.
Assay [2] addresses HSL3 ectodomain (wild type, residues 23–627) (Arabidopsis). Put plainly: ITC; CTNIP4 peptide (140–800 µM, syringe) injected into 15 µM HSL3 ectodomain or variant (cell); 25 °C; 20 mM sodium citrate, 150 mM NaCl, pH 5.0; N fitted to 1.
The target in assay [3] is SERK1 ectodomain (residues 24–213) (UniProt Q94AG2). Put plainly: ITC. The settings on record: SERK1 in syringe; HSL3 + peptide in cell; N = 1.
SERK1 ectodomain (residues 24–213), sequence (Q94AG2 whole entry, looked up, the tested form may be a part): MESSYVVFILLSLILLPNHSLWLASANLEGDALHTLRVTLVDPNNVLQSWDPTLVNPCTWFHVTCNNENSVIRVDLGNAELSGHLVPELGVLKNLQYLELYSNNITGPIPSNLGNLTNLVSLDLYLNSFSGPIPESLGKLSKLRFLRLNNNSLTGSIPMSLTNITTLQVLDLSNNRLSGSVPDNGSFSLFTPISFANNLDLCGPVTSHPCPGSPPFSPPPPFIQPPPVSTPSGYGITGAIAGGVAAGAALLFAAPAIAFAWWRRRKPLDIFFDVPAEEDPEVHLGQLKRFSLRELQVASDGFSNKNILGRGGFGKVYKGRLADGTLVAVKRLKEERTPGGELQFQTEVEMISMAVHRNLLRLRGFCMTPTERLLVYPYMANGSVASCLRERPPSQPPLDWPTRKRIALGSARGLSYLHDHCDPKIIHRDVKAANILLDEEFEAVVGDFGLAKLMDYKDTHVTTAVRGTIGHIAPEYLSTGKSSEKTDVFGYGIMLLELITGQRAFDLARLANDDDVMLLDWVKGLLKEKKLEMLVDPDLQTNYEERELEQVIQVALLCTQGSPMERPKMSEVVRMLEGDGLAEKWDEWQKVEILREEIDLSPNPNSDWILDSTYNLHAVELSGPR
For assay [4], the target named is CTNIP4(46–70)_(Cys–Cys). Briefly: ITC. The settings on record: ligand in syringe, receptor in cell; N = 1.
For assay [5], the target named is SERK3. Put plainly: ITC. The note with it: SERK3 in syringe; HSL3 + peptide in cell; N = 1.

On to CTNIP4(46–70)_(Cys–Cys) S53A, for which, in assay [1], the Kd worked out at 3.44 µM and the other: ΔH is -73.2 kJ/mol.

As for “CTNIP4^C58A.C68A(46–70)_(linear) (peptide)”, the fold impairment of binding against CTNIP4(46–70) (Cys–Cys) in assay [2] was 200 fold.

On to HSL3 + CTNIP4(46–63) C58A, for which the other: ΔH in assay [3] was -15.5 kJ/mol.

Substance “HSL3 ectodomain (wild type, residues 23–627) D241A” had an other: ΔH in assay [4] of -73.6 kJ/mol.

“HSL3 ectodomain (wild type, residues 23–627) D288A” gave an other: ΔH in assay [4] of -14.2 kJ/mol.

“HSL3 ectodomain (wild type, residues 23–627) E171A” showed an other: ΔH in assay [4] of -88.7 kJ/mol.

In assay [4], “HSL3 ectodomain (wild type, residues 23–627) R358A” registered a Kd of 0.112 µM and an other: ΔH of -108 kJ/mol.

For the substance “HSL3–CTNIP4 complex (HSL3 ectodomain pre-incubated with CTNIP4(46–70)_(Cys–Cys)) C58A; C68A”, the other: ΔH in assay [3] was -29.7 kJ/mol.

In the case of “HSL3–CTNIP4 complex (HSL3 ectodomain pre-incubated with CTNIP4(46–70)_(Cys–Cys)) N60A”, the other: ΔH in assay [5] is 13.8 kJ/mol.

Take “HSL3–CTNIP4 complex (HSL3 ectodomain pre-incubated with CTNIP4(46–70)_(Cys–Cys)) N60F”: in assay [5], the other: ΔH is 55.4 kJ/mol.

Usually Kd stands for a measure of binding affinity in units of concentration.
